Reference: patent US20140087995A1 (published 2014)
Numbered stars: 1 amine (or outer) side, 2 acyl side, 3 side chain; on linkers, the order of the positions; unused ones are H or OH. Bridge positions count the residues as written; N and C are the ends. Side chains are listed from the residue outwards. Ends that are not written are not given here. * marks the point of attachment. C20 diacid = O=C(O)CCCCCCCCCCCCCCCCCCC(=O)*; γGlu = O=C(O)[C@H](CCC(=O)[*:2])N[*:1]

T1: human calcitonin receptor (human, UniProt P30988 25-474)
T1 construct: whole, on cells; Membranes in a scintillation proximity assay (Assay VII); also called hCTR; hCT
T1 sequence (looked up): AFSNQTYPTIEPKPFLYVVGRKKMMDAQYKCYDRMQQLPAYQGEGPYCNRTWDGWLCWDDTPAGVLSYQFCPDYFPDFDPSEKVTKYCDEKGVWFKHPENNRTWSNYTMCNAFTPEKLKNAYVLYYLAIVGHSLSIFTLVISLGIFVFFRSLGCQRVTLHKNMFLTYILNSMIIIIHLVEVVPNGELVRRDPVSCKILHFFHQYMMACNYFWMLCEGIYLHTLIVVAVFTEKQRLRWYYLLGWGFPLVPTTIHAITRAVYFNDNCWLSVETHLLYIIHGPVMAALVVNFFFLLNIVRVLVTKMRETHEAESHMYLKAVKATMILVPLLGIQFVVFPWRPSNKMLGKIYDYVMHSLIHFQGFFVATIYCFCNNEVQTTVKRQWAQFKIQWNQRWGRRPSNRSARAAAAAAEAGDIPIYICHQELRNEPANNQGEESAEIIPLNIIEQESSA

T2: human amylin receptor (amylin 3(a) receptor: human calcitonin receptor plus RAMP-3) (human, UniProt P30988 25-474; O60896 24-148)
T2 construct: whole, on cells; the species of RAMP-3 is told only through the name 'human amylin receptor'; also called hAmylin-R; hAmylinR
T2 sequence (looked up) 1: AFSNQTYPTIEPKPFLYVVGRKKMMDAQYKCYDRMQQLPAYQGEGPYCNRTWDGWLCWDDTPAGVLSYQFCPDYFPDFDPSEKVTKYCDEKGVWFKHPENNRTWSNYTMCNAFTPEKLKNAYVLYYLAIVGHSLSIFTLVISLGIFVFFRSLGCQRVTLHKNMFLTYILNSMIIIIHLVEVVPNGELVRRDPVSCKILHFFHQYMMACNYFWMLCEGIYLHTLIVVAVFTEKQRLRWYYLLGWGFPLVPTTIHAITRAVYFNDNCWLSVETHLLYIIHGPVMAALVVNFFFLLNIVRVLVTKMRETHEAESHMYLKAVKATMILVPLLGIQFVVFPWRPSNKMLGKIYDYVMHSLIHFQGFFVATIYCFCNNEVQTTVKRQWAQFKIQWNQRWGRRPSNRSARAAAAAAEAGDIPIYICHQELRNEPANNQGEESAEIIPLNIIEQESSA
T2 sequence (looked up) 2: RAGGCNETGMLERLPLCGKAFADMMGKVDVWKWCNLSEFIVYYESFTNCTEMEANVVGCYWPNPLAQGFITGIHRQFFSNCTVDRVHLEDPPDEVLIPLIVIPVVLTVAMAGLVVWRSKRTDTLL

T3: human calcitonin receptor (human, UniProt P30988 25-474)
T3 construct: whole, on cells; also called hCTR; hCT
T3 sequence (looked up): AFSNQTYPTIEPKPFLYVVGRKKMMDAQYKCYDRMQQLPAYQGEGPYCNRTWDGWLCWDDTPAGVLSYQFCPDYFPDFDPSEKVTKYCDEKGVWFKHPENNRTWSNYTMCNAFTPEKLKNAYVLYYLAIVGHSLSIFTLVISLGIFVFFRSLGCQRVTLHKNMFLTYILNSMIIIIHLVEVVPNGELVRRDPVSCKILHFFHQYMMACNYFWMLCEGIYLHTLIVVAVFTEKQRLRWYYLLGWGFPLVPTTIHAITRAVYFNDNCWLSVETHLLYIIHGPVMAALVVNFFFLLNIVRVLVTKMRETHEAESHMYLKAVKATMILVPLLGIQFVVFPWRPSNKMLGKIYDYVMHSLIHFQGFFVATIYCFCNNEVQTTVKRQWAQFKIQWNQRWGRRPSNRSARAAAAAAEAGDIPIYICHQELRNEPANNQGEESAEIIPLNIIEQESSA


Assays:
[1] = molecular target: T1, human calcitonin receptor; assay: ratio of IC50 at human calcitonin receptor to IC50 at human amylin receptor (reference), SPA binding assays
Experimental: The resulting pellet was resuspended, homogenized and centrifuged (20.000 rpm, 15 min) in a buffer containing 20 mM Na-HEPES and 0.1 mM EDTA (pH 7.4, buffer 2). The resulting pellet was resuspended in buffer 2 and protein concentration was measured (BCA protein Assay, Pierce). The homogenate was kept cold during the whole procedure. The membranes were kept at −80° C. until use. The assay was performed in a 384 well Optiplate (PerkinElmer) in a total volume of 40 ul. Membranes were mixed with SPA beads. Final concentration of membranes 35 ng/μL final and SPA beads was 0.05 mg/well. Test-compounds were dissolved in DMSO and further diluted in assay buffer (50 mM Hepes, pH 7.4, 1 mM CaCl2, 5 mM MgCl₂, 0.1% OA and 0.02% Tween20). […] The final mixture was incubated with shaking at 400 rpm for 120 min at 25° C. prior to centrifugation (1500 rpm, 10 min). Samples were analyzed on TopCounter™ (Packard). The IC₅₀ was calculated using (one site binding competition analysis) GraphPad Prism5 as a measure of receptor affinity.
Membranes were prepared in the following way; the cells were rinsed with PBS and incubated with Versene for approximately 5 min before harvesting. The cells were flushed with PBS and the cell-suspension was centrifuged for 5 min at 1000 rpm. Cells were homogenized (Ultrathurrax) in a buffer containing 20 mM Na-HEPES and 10 mM EDTA (pH 7.4) and centrifuged at 20.000 rpm for 15 min. The resulting pellet was resuspended, homogenized and centrifuged (20.000 rpm, 15 min) in a buffer containing 20 mM Na-HEPES and 0.1 mM EDTA (pH 7.4, buffer 2). The resulting pellet was resuspended in buffer 2 and protein concentration was measured (BCA protein Assay, Pierce). The homogenate was kept cold during the whole procedure. The membranes were kept at −80° C. until use. Assay was performed in a 384 well Optiplate (PerkinElmer) in a total volume of 40 ul. Membranes were mixed with SPA beads.

[2] = molecular target: T1, human calcitonin receptor; assay: SPA competition binding, displacement of 125I-calcitonin from membranes with human calcitonin receptor (Assay VII)
Experimental: Membranes were prepared in the following way; the cells were rinsed with PBS and incubated with Versene for approximately 5 min before harvesting. The cells were flushed with PBS and the cell-suspension was centrifuged for 5 min at 1000 rpm. Cells were homogenized (Ultrathurrax) in a buffer containing 20 mM Na-HEPES and 10 mM EDTA (pH 7.4) and centrifuged at 20.000 rpm for 15 min. The resulting pellet was resuspended, homogenized and centrifuged (20.000 rpm, 15 min) in a buffer containing 20 mM Na-HEPES and 0.1 mM EDTA (pH 7.4, buffer 2). The resulting pellet was resuspended in buffer 2 and protein concentration was measured (BCA protein Assay, Pierce). The homogenate was kept cold during the whole procedure. The membranes were kept at −80° C. until use. Assay was performed in a 384 well Optiplate (PerkinElmer) in a total volume of 40 ul. Membranes were mixed with SPA beads. Final concentration of membranes 35 ng/μL final and Final concentration of SPA beads was 0.05 mg/well. Test-compounds were dissolved in DMSO and further diluted in assay buffer (50 mM Hepes, pH 7.4, 1 mM CaCl2, 5 mM MgCl₂, 0.1% OA and 0.02% Tween20). […] The final mixture was incubated for 120 min with shaking at 400 rpm at 25° C. prior to centrifugation (1500 rpm, 10 min). Samples were analyzed on TopCounter™ (Packard). The […] was calculated using (one site binding competition analysis) GraphPad Prism5 as a measure of receptor affinity.

[3] = molecular target: T2, human amylin receptor (amylin 3(a) …); assay: SPA competition binding, membranes with human amylin 3(a) receptor, displacement of 125I-rat amylin (Assay V)
Experimental: The binding assay was performed using scintillation proximity assay (SPA) beads (RPNQ0001) from PerkinElmer and cell membranes from the Amylin 3(a)/CRE-luc cells (as described in Assay (II)) were used. Membranes were prepared in the following way; the cells were rinsed with PBS and incubated with Versene for approximately 5 min before harvesting. The cells were flushed with PBS and the cell-suspension was centrifuged for 5 min at 1000 rpm. Cells were homogenized (ultrathurrax) in a buffer containing 20 mM Na-HEPES and 10 mM EDTA (pH 7.4) and centrifuged at 20.000 rpm for 15 min. The resulting pellet was resuspended, homogenized and centrifuged (20.000 rpm, 15 min) in a buffer containing 20 mM Na-HEPES and 0.1 mM EDTA (pH 7.4, buffer 2). The resulting pellet was resuspended in buffer 2 and protein concentration was measured (BCA protein Assay, Pierce). The homogenate was kept cold during the whole procedure. The membranes were kept at −80° C. until use. The assay was performed in a 384 well Optiplate (PerkinElmer) in a total volume of 40 ul. Membranes were mixed with SPA beads. Final concentration of membranes 35 ng/μL final and SPA beads was 0.05 mg/well. Test-compounds were dissolved in DMSO and further diluted in assay buffer (50 mM Hepes, pH 7.4, 1 mM CaCl2, 5 mM MgCl₂, 0.1% OA and 0.02% Tween20). […] The final mixture was incubated with shaking at 400 rpm for 120 min at 25° C. prior to centrifugation (1500 rpm, 10 min). Samples were analyzed on TopCounter™ (Packard). The IC₅₀ was calculated using (one site binding competition analysis) GraphPad Prism5 as a measure of receptor affinity.

[4] = molecular target: T3, human calcitonin receptor; assay: ratio of IC50 at hCTR to IC50 at the human amylin receptor (reference)
Summary of the method: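 Membranes (35 ng/μL final) + SPA beads, 50 mM Hepes pH 7.4 buffer with 1 mM CaCl2, 5 mM MgCl₂, 0.1% OA, 0.02% Tween20; 120 min, 25° C, shaking; centrifuged, counted; IC₅₀ by one-site binding competition.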

[5] = molecular target: T3, human calcitonin receptor; assay: SPA competition binding, membranes with human calcitonin receptor, displacement of 125I-calcitonin (Assay VII)
Summary of the method: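 BHK hCTR membranes 35 ng/μL + SPA beads 0.05 mg/well; buffer 50 mM Hepes pH 7.4, 1 mM CaCl2, 5 mM MgCl₂, 0.1% OA, 0.02% Tween20. 120 min, 25° C., shaking. Scintillation count; IC50 by one-site binding competition.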

| Ratio hCT/hAmylin binding [1] | IC50 [2] [nM] | IC50 [3] [nM] | Ratio hCT/hAmylin binding [4] | IC50 [5] [nM] | Binder |
| --- | --- | --- | --- | --- | --- |
| 280 | 127 | – | – | – | K([γGlu-γGlu-C20 diacid])CNTATCATQRLADFLRHSSPNFGAIPSSTNVGPRTY-NH2 (disulfide 2-7 (inferred), also called compound 130) |
| – | – | 1.14 | 90 | 102 | KCNTATCATQRLANFLRHSSPNFGAIPSSTNVGSNTY (C20 diacid-gGlu-2xOEG on the alpha amino group of the N-terminal residue; disulfide bridge Cys2-Cys7; C-terminal amide, also called compound 24) |
| – | – | 0.577 | 13.9 | 8.01 | {C20 diacid-γGlu}-KCNTATCATQRLANFLRHSSPNFGAIPSSTNVGPETY-NH2 (disulfide 2-7; SMILES CC[C@H](C)[C@H](NC(=O)[C@H](C)NC(=O)CNC(=O)[C@H](Cc1ccccc1)NC(=O)[C@H](CC(N)=O)NC(=O)[C@@H]1CCCN1C(=O)[C@H](CO)NC(=O)[C@H](CO)NC(=O)[C@H](Cc1c[nH]cn1)NC(=O)[C@H](CCCNC(=N)N)NC(=O)[C@H](CC(C)C)NC(=O)[C@H](Cc1ccccc1)NC(=O)[C@H](CC(N)=O)NC(=O)[C@H](C)NC(=O)[C@H](CC(C)C)NC(=O)[C@H](CCCNC(=N)N)NC(=O)[C@H](CCC(N)=O)NC(=O)[C@@H](NC(=O)[C@H](C)NC(=O)[C@@H]1CSSC[C@H](NC(=O)[C@H](CCCCN)NC(=O)CC[C@H](NC(=O)CCCCCCCCCCCCCCCCCCC(=O)O)C(=O)O)C(=O)N[C@@H](CC(N)=O)C(=O)N[C@@H]([C@@H](C)O)C(=O)N[C@@H](C)C(=O)N[C@@H]([C@@H](C)O)C(=O)N1)[C@@H](C)O)C(=O)N1CCC[C@H]1C(=O)N[C@@H](CO)C(=O)N[C@@H](CO)C(=O)N[C@H](C(=O)N[C@@H](CC(N)=O)C(=O)N[C@H](C(=O)NCC(=O)N1CCC[C@H]1C(=O)N[C@@H](CCC(=O)O)C(=O)N[C@H](C(=O)N[C@@H](Cc1ccc(O)cc1)C(N)=O)[C@@H](C)O)C(C)C)[C@@H](C)O, also called compound 29) |
| – | – | 1.14 | 64.4 | 73.4 | KCNTATCATQRLANFLRHSSPNFGAIPSSTNVGSKTY (C20 diacid-gGlu on the alpha amino group of the N-terminal residue; disulfide bridge Cys2-Cys7; C-terminal amide, also called compound 34) [N^α1-[(4S)-4-carboxy-4-(19-carboxynonadecanoylamino)butanoyl]-[Arg17,Pro21,Pro27,Lys35]-h-amylin] |
| 151 | 42.5 | – | – | – | K([γGlu-C20 diacid])CNTATCATQRLADFLRHSSPNFGAIPSSTNVGPRTY-NH2 (disulfide 2-7 (inferred)) |
| 16.7 | 3.27 | – | – | – | K([γGlu-C20 diacid])CNTATCATQRLADFLRHSSPNFGAIPSSTNVGPETY-NH2 (disulfide 2-7 (inferred)) |
| 26.4 | 26.1 | – | – | – | K([γGlu-C20 diacid])CNTATCATQRLAEFLRHSSPNFGAIPSSTNVGSHTY-NH2 (disulfide 2-7 (inferred)) |
| 18 | 2.73 | – | – | – | K([γGlu-γGlu-C20 diacid])CNTATCATQRLAEFLRHSSPNFGAIPSSTNVGPNTF-NH2 (disulfide 2-7 (inferred)) |
| 27.3 | 10.3 | – | – | – | K([γGlu-γGlu-C20 diacid])CNTATCATQRLAEFLRHSSPNFGAIPSSTNVGPHTY-NH2 (disulfide 2-7 (inferred)) |
